The values that follow come from PMC11019930, “DnaK duplication and specialization in bacteria correlates with increased proteome complexity” (mSystems, 2024).

Data set [1] addresses N2β1α1C1, recombinant purified (the MxDnaK1 chimera with the MxDnaK2 NBD) (Myxococcus xanthus DK1622). Briefly: SDS-PAGE of the purified protein (monomer and dimer bands); purified MxDnaKs and chimeras on SDS-PAGE, without DTT treatment; monomer (1×) and dimer (2×) bands.
Data set [2] deals with the molecule itself. The description is as above.

Regarding “N2β1α1C1, recombinant purified (the MxDnaK1 chimera with the MxDnaK2 NBD)”, the oligomer state on SDS-PAGE (subunits per band) in data set [1] was found to be 2.

B1: His6-MxDnaK2 (natural protein, Myxococcus xanthus DK1622, UniProt P95334 1-607, looked up)
chain: MGKVIGIDLGTTNSCVAVMEGGEPVVIPNSEGSRTTPSMVGFTDSGERLVGQIAKRQAITNPENTVFAAKRLIGRKFDSPEGKKAIGVSPFKVASSPNGDAWVEIRGKGYSPPEVSAIVLMKMKQTAEDYLGEQVSEAVITVPAYFNDSQRQATKDAGRIAGLSVLRIINEPTAAALAYGLDKVQDGGTERIAVYDLGGGTFDISILELNAGVFEVKSTNGDTFLGGEDFDQRLIDYLAKRFAESNNGLDLRKDRMALQRLKEAAERAKHELSSAPETEVNLPFITADASGPKHLTETVDRATFEALVTDLIDRTIEPCRIALKDAGIPAQQINQVLLVGGMTRMPRVQQKVKEFFGREPHKGINPDEVVAVGAAIQGGVLKGEVKDVLLLDVTPLSLGVETAGGVFTKIIDKNTTIPCKKSQVFSTAVDNQPLVSVHVLQGEREMAADNKTLARFELVGIPPAPRGVPQIEVSFDIDANGIVHVSAKDLGTGKVQQVRVVSNSGLSEAEIQAMISDAQSHASDDKKKKELAELRNNADGLIYTTEKSLEEYASLLSEKDREEIKADLERLKEVLNTSDAAVLKESFQRLEGSAYRIADAIYTGQAS
notes: MxDnaK2 (MXAN_6671) of Myxococcus xanthus DK1622; the gene was amplified from genomic DNA and cloned into pET28a; His6-MxDnaK2 printed as 65.3 kDa; also called MxDnaK2, recombinant purified; source: E. coli BL21 (DE3), purified (Ni-NTA); not shown: His6, N-terminal, kept
What is called stoichiometry N is the number of molecules, sites or subunits per partner or assembly. Regarding B1, in data set [2], the “stoichiometry N” value came to 2.
